Key:
[1] = target: T1, SepG–mCherry (S. coelicolor, UniProt Q9S2X3 1-94); assay: FRET or BRET; acceptor photobleaching in living S. coelicolor M145 hyphae; donor eGFP, acceptor mCherry; post-bleach donor intensity relative to the pre-bleach intensity (set to 1); conditions: partners not purified
T1 construct: SepG (YlmG), SCO2078, 94 aa membrane protein of Streptomyces coelicolor; called full-length sepG in the methods; egfp of pGWS755 replaced by the gene for mCherry; also called YlmG; SCO2078; source: S. coelicolor M145, expressed from the ftsZ promoter region (pGWS791), in living aerial hyphae; not shown: mCherry, C-terminal, kept
T1 sequence (looked up): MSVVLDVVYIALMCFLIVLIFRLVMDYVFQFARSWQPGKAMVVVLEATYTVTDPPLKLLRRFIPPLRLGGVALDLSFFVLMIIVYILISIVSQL

[2] = target: T2, FtsZ–mCherry (S. coelicolor, UniProt P45500 1-399); assay: as above; conditions: partners not purified
T2 construct: FtsZ, cell division scaffold protein of Streptomyces coelicolor; The FtsZ–mCherry construct is not described in the main text; source: S. coelicolor M145, expressed in living aerial hyphae
T2 sequence (looked up): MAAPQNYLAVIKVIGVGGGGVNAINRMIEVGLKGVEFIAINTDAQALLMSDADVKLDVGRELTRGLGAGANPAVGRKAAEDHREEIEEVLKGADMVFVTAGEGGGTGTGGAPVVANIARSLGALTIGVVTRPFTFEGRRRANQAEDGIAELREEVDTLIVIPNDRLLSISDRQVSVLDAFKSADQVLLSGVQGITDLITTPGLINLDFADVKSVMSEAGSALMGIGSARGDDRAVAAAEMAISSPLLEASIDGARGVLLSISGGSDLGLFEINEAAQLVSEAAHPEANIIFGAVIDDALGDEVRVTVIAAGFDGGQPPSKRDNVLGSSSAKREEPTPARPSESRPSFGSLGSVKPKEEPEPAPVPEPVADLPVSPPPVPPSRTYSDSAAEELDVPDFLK

B1: SsgB–eGFP (natural protein, S. coelicolor, UniProt Q9L268 1-137, looked up)
chain: MNTTVSCELHLRLVVSSESSLPVPAGLRYDTADPYAVHATFHTGAEETVEWVFARDLLAEGLHRPTGTGDVRVWPSRSHGQGVVCIALSSPEGEALLEAPARALESFLKRTDAAVPPGTEHRHFDLDQELSHILAES
notes: SsgB, SCO1541, FtsZ-recruiting cell division protein of Streptomyces coelicolor; also called SCO1541; source: S. coelicolor M145, expressed in living aerial hyphae
- donor fluorescence intensity after acceptor photobleaching, relative to before (FRET) [1]: 1.05
- donor fluorescence intensity after acceptor photobleaching, relative to before (FRET) [2]: 1.08

Reference: PMC4852450, “SepG coordinates sporulation-specific cell division and nucleoid organization in Streptomyces coelicolor” (Open Biology, 2016)
